Common to all, as to assay: pull-down
Experiment [1] deals with T1, GST-AP-1 core, wild type (murine | human, UniProt P22892 1-595; Q10567 1-584; Q96PC3 1-154; P35585 1-423).
The target of experiment [2] is T1, GST-AP-1 core, wild type. The source holds these as a separate data set.
The target of experiment [3] is T1, GST-AP-1 core, wild type. The source holds these as a separate data set.

T1 sequence (P22892 1-595, chain 1 of 4): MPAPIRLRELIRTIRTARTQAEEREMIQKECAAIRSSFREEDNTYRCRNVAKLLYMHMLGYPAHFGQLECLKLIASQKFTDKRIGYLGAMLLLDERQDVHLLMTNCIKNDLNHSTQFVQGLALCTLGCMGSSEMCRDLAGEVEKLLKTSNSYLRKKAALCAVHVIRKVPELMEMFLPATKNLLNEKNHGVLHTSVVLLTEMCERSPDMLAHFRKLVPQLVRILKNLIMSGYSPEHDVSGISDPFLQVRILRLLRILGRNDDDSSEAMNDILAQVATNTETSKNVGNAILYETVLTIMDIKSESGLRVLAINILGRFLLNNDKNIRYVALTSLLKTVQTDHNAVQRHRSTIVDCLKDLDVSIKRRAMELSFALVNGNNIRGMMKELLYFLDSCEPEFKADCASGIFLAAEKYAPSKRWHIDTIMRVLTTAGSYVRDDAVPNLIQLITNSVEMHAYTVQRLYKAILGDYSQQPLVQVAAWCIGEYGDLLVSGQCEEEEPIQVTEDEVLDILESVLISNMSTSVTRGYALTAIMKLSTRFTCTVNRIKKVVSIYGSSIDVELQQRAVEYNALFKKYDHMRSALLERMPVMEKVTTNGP
T1 sequence (Q10567 1-584, chain 2 of 4): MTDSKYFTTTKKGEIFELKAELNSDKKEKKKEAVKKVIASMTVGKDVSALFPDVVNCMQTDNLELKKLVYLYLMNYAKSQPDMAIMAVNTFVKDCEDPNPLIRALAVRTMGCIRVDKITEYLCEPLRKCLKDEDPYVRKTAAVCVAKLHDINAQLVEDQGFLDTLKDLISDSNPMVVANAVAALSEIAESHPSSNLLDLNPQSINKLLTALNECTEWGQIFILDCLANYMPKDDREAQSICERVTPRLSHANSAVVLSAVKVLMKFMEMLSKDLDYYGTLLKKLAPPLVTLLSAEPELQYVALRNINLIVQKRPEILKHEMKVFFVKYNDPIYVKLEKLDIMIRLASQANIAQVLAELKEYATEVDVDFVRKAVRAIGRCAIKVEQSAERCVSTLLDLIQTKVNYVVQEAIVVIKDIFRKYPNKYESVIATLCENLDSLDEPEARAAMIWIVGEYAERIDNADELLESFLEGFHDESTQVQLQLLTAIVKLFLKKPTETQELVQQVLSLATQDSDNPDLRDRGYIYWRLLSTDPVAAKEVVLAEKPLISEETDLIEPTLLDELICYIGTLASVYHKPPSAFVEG
T1 sequence (Q96PC3 whole entry, chain 3 of 4): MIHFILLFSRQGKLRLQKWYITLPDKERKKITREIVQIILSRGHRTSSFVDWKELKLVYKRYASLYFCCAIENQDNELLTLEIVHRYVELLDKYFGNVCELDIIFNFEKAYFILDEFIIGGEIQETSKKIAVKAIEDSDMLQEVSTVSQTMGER
T1 sequence (P35585 whole entry, chain 4 of 4): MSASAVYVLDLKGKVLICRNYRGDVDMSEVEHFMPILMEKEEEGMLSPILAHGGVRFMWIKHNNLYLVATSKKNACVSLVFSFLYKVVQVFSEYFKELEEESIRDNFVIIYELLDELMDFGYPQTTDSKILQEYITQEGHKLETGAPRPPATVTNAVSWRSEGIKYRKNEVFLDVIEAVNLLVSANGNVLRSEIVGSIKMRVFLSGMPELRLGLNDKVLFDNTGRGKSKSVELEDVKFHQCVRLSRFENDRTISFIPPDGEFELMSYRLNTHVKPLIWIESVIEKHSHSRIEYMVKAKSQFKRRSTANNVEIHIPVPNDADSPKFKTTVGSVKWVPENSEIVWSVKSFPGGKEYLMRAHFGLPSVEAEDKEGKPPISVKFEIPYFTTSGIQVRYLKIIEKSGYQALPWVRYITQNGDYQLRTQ

B1: His6-Arf1^Δ1-16 Q71L, GTP-loaded (domain or fragment)
chain: not shown
The Kd is the constant that tells how readily two partners part at equilibrium. Lower therefore signals higher affinity. As to B1, in experiment [1], the “fold increase of Arf1 bound with 20 μM VAMP4 peptide, against no peptide” value was 4 fold. Also, in experiment [2], the affinity, expressed as Kd, was 20 ± 0.6 µM.

B2: His-Arf1^Δ16-Q71L W172D (domain or fragment)
chain: not shown
As for B2, the binding result in experiment [3] is “binds”.

B3: His-Arf1^Δ16-Q71L A136P/A137H (domain or fragment)
chain: not shown
For the molecule B3, the binding result in experiment [3] is on record as “binds”.

These data come from PMC3913725 (Cell, 2013).
